Source: PMC8190868

How the values were obtained:
[1] = molecular target: A. fulgidus humanized ferritin (chimeric ferritin: Archaeoglobus fulgidus ferritin with a grafted surface loop of human H ferritin) (Archaeoglobus fulgidus); experiment: negative staining electron microscopy; TEM, HumFt 0.02 mg/mL with 50 mM Mg2+ and/or G4 PAMAM; 2% uranyl acetate or 4% ammonium molybdate
[2] = molecular target: A. fulgidus humanized ferritin (chimeric ferritin: Archaeoglobus fulgidus ferritin with a grafted surface loop of human H ferritin) (Archaeoglobus fulgidus); experiment: SEC; HP-SEC of the HumFt-G4 PAMAM/FITC nanoparticle; mobile phase 20 mM HEPES pH 7.4 with 50 mM MgCl2; UV 220 nm and fluorescence; dimers to 24-mer
[3] = molecular target: A. fulgidus humanized ferritin (chimeric ferritin: Archaeoglobus fulgidus ferritin with a grafted surface loop of human H ferritin) (Archaeoglobus fulgidus); experiment: SEC; HP-SEC of HumFt with divalent cations only (no PAMAM); dimers to 24-mer
[4] = molecular target: A. fulgidus humanized ferritin (chimeric ferritin: Archaeoglobus fulgidus ferritin with a grafted surface loop of human H ferritin) (Archaeoglobus fulgidus); experiment: SEC; HP-SEC, no MgCl2; open HumFt 5 mg/mL (10 uM 24-mer) added to G3, G4 or G5 PAMAM at HumFt:PAMAM 1:10, 1:20, 1:30; mobile phase 20 mM HEPES pH 7.4; UV 220 nm; dimers to 24-mer
[5] = molecular target: A. fulgidus humanized ferritin (chimeric ferritin: Archaeoglobus fulgidus ferritin with a grafted surface loop of human H ferritin) (Archaeoglobus fulgidus); experiment: negative staining electron microscopy; TEM, HumFt 0.02 mg/mL in HEPES buffer without magnesium ions; 2% uranyl acetate or 4% ammonium molybdate
[6] = molecular target: A. fulgidus humanized ferritin (chimeric ferritin: Archaeoglobus fulgidus ferritin with a grafted surface loop of human H ferritin) (Archaeoglobus fulgidus); experiment: SEC; HP-SEC of the HumFt-PAMAM nanoparticle after up to 24 h at 37 °C in 20 mM HEPES with 50 mM MgCl2, in PBS, or in RPMI 1640 with 10% FCS

stoichiometry N [1]: 24
percent dimeric form [2]: < 2%
stoichiometry N [2]: 24
percent dimeric form [3]: 10 to 15%
stoichiometry N [4]: 24
stoichiometry N [5]: 2
percent 24-mer [6]: > 95%
Substance: A. fulgidus humanized ferritin (chimeric ferritin: Archaeoglobus fulgidus ferritin with a grafted surface loop of human H ferritin)
